According to the supplement of paper PMC5998384:

Legend:
HeLa Kyoto [1] = test: thermal stability score vs G1/S (z-score of summed log2 fold changes over temperatures); higher = more thermally stable than in G1/S
HeLa Kyoto [2] = test: melting temperature (median over replicates), in situ; higher = more thermally stable
HeLa Kyoto [3] = test: solubility change mitosis vs G1/S (difference of NP-40 vs SDS log2 ratios) (log2 ratio difference); higher = more soluble in mitosis
HeLa Kyoto [4] = test: solubility in G1/S (NP-40 vs SDS abundance) (log2 ratio); higher = more soluble; details: cell cycle stage: G1/S
[5] = cell cycle stage: early G1 (4.5 h after nocodazole release)
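Wherever melting temperature (median over replicates), in situ is given: HeLa Kyoto cells synchronized by double thymidine or nocodazole block, proteins quantified by TMT10plex mass spectrometry, three independent biological replicates.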
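Wherever solubility change mitosis vs G1/S (difference of NP-40 vs SDS log2 ratios) is given: synchronized HeLa Kyoto cells (double thymidine block for G1/S, nocodazole release for mitosis), protein amounts in NP-40 versus SDS lysates quantified by mass spectrometry, three biological replicates.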
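Wherever solubility in G1/S (NP-40 vs SDS abundance) is given: HeLa Kyoto cells arrested at G1/S by double thymidine block, proteins quantified by TMT10plex mass spectrometry in mild NP-40 versus SDS extracts, three biological replicates.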
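Wherever thermal stability score vs G1/S (z-score of summed log2 fold changes over temperatures) is given: synchronized HeLa Kyoto cells, proteins quantified by TMT10plex mass spectrometry, three biological replicates, mitosis taken 0.5 h after nocodazole release, G1/S directly after double thymidine block.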

Sequence | thermal stability score (HeLa Kyoto [1]; [5]) | thermal stability score (HeLa Kyoto [1]; cell cycle stage: mitosis) | melting temperature (HeLa Kyoto [2]; cell cycle stage: G1/S) [°C] | melting temperature (HeLa Kyoto [2]; cell cycle stage: mitosis) [°C] | solubility change mitosis (log2) (HeLa Kyoto [3]) | solubility in G1/S (log2) (HeLa Kyoto [4])
MAAAFEASGALAAVATAMPAEHVAVQVPAPEPTPGPVRILRTAQDLSSPRTRTGDVLLAEPADFESLLLSRPVLEGLRAAGFERPSPVQLKAIPLGRCGLDLIVQAKSGTGKTCVFSTIALDSLVLENLSTQILILAPTREIAVQIHSVITAIGIKMEGLECHVFIGGTPLSQDKTRLKKCHIAVGSPGRIKQLIELDYLNPGSIRLFILDEADKLLEEGSFQEQINWIYSSLPASKQMLAVSATYPEFLANALTKYMRDPTFVRLNSSDPSLIGLKQYYKVVNSYPLAHKVFEEKTQHLQELFSRIPFNQALVFSNLHSRAQHLADILSSKGFPAECISGNMNQNQRLDAMAKLKHFHCRVLISTDLTSRGIDAEKVNLVVNLDVPLDWETYMHRIGRAGRFGTLGLTVTYCCRGEEENMMMRIAQKCNINLLPLPDPIPSGLMEECVDWDVEVKAAVHTYGIASVPNQPLKKQIQKIERTLQIQKAHGDHMASSRNNSVSGLSVKSKNNTKQKLPVKSHSECGIIEKATSPKELGCDRQSEEQMKNSVQTPVENSTNSQHQVKEALPVSLPQIPCLSSFKIHQPYTLTFAELVEDYEHYIKEGLEKPVEIIRHYTGPGDQTVNPQNGFVRNKVIEQRVPVLASSSQSGDSESDSDSYSSRTSSQSKGNKSYLEGSSDNQLKDSESTPVDDRISLEQPPNGSDTPNPEKYQESPGIQMKTRLKEGASQRAKQSRRNLPRRSSFRLQTEAQEDDWYDCHREIRLSFSDTYQDYEEYWRAYYRAWQEYYAAASHSYYWNAQRHPSWMAAYHMNTIYLQEMMHSNQ [DDX20] | -0.14 | 3.36 | 47.5 | 48.8 | 0.084 | -0.119
MAAAGAFRLRRAASALLLRSPRLPARELSAPARLYHKKVVDHYENPRNVGSLDKTSKNVGTGLVGAPACGDVMKLQIQVDEKGKIVDARFKTFGCGSAIASSSLATEWVKGKTVEEALTIKNTDIAKELCLPPVKLHCSMLAEDAIKAALADYKLKQEPKKGEAEKK [ISCU] | -1.67 | -2.36 | 53.3 | 54 | 0.0125 | 0.467
MAAALRVAAVGARLSVLASGLRAAVRSLCSQATSVNERIENKRRTALLGGGQRRIDAQHKRGKLTARERISLLLDPGSFVESDMFVEHRCADFGMAADKNKFPGDSVVTGRGRINGRLVYVFSQDFTVFGGSLSGAHAQKICKIMDQAITVGAPVIGLNDSGGARIQEGVESLAGYADIFLRNVTASGVIPQISLIMGPCAGGAVYSPALTDFTFMVKDTSYLFITGPDVVKSVTNEDVTQEELGGAKTHTTMSGVAHRAFENDVDALCNLRDFFNYLPLSSQDPAPVRECHDPSDRLVPELDTIVPLESTKAYNMVDIIHSVVDEREFFEIMPNYAKNIIVGFARMNGRTVGIVGNQPKVASGCLDINSSVKGARFVRFCDAFNIPLITFVDVPGFLPGTAQEYGGIIRHGAKLLYAFAEATVPKVTVITRKAYGGAYDVMSSKHLCGDTNYAWPTAEIAVMGAKGAVEIIFKGHENVEAAQAEYIEKFANPFPAAVRGFVDDIIQPSSTRARICCDLDVLASKKVQRPWRKHANIPL [PCCB] | -1.53 | -1.91 | 54.3 | 54.9 | -0.114 | -0.114
MAAALWGFFPVLLLLLLSGDVQSSEVPGAAAEGSGGSGVGIGDRFKIEGRAVVPGVKPQDWISAARVLVDGEEHVGFLKTDGSFVVHDIPSGSYVVEVVSPAYRFDPVRVDITSKGKMRARYVNYIKTSEVVRLPYPLQMKSSGPPSYFIKRESWGWTDFLMNPMVMMMVLPLLIFVLLPKVVNTSDPDMRREMEQSMNMLNSNHELPDVSEFMTRLFSSKSSGKSSSGSSKTGKSGAGKRR [EMC7] | -1.44 | -0.331 | 54.4 | 54.1 | 0.0594 | 0.424
MAAAPPLSKAEYLKRYLSGADAGVDRGSESGRKRRKKRPKPGGAGGKGMRIVDDDVSWTAISTTKLEKEEEEDDGDLPVVAEFVDERPEEVKQMEAFRSSAKWKLLGGHNEDLPSNRHFRHDTPDSSPRRVRHGTPDPSPRKDRHDTPDPSPRRARHDTPDPSPLRGARHDSDTSPPRRIRHDSSDTSPPRRARHDSPDPSPPRRPQHNSSGASPRRVRHDSPDPSPPRRARHGSSDISSPRRVHNNSPDTSRRTLGSSDTQQLRRARHDSPDLAPNVTYSLPRTKSGKAPERASSKTSPHWKESGASHLSFPKNSKYEYDPDISPPRKKQAKSHFGDKKQLDSKGDCQKATDSDLSSPRHKQSPGHQDSDSDLSPPRNRPRHRSSDSDLSPPRRRQRTKSSDSDLSPPRRSQPPGKKAAHMYSGAKTGLVLTDIQREQQELKEQDQETMAFEAEFQYAETVFRDKSGRKRNLKLERLEQRRKAEKDSERDELYAQWGKGLAQSRQQQQNVEDAMKEMQKPLARYIDDEDLDRMLREQEREGDPMANFIKKNKAKENKNKKVRPRYSGPAPPPNRFNIWPGYRWDGVDRSNGFEQKRFARLASKKAVEELAYKWSVEDM [BUD13] | 0.0865 | -0.687 | 52.9 | 53 | 0.878 | -0.884
MAAARHSTLDFMLGAKADGETILKGLQSIFQEQGMAESVHTWQDHGYLATYTNKNGSFANLRIYPHGLVLLDLQSYDGDAQGKEEIDSILNKVEERMKELSQDSTGRVKRLPPIVRGGAIDRYWPTADGRLVEYDIDEVVYDEDSPYQNIKILHSKQFGNILILSGDVNLAESDLAYTRAIMGSGKEDYTGKDVLILGGGDGGILCEIVKLKPKMVTMVEIDQMVIDGCKKYMRKTCGDVLDNLKGDCYQVLIEDCIPVLKRYAKEGREFDYVINDLTAVPISTSPEEDSTWEFLRLILDLSMKVLKQDGKYFTQGNCVNLTEALSLYEEQLGRLYCPVEFSKEIVCVPSYLELWVFYTVWKKAKP [SMS] | -2.98 | -1.47 | 56.6 | 56.5 | -0.166 | 0.398
MAAATGDPGLSKLQFAPFSSALDVGFWHELTQKKLNEYRLDEAPKDIKGYYYNGDSAGLPARLTLEFSAFDMSAPTPARCCPAIGTLYNTNTLESFKTADKKLLLEQAANEIWESIKSGTALENPVLLNKFLLLTFADLKKYHFYYWFCYPALCLPESLPLIQGPVGLDQRFSLKQIEALECAYDNLCQTEGVTALPYFLIKYDENMVLVSLLKHYSDFFQGQRTKITIGVYDPCNLAQYPGWPLRNFLVLAAHRWSSSFQSVEVVCFRDRTMQGARDVAHSIIFEVKLPEMAFSPDCPKAVGWEKNQKGGMGPRMVNLSECMDPKRLAESSVDLNLKLMCWRLVPTLDLDKVVSVKCLLLGAGTLGCNVARTLMGWGVRHITFVDNAKISYSNPVRQPLYEFEDCLGGGKPKALAAADRLQKIFPGVNARGFNMSIPMPGHPVNFSSVTLEQARRDVEQLEQLIESHDVVFLLMDTRESRWLPAVIAASKRKLVINAALGFDTFVVMRHGLKKPKQQGAGDLCPNHPVASADLLGSSLFANIPGYKLGCYFCNDVVAPGDSTRDRTLDQQCTVSRPGLAVIAGALAVELMVSVLQHPEGGYAIASSSDDRMNEPPTSLGLVPHQIRGFLSRFDNVLPVSLAFDKCTACSSKVLDQYEREGFNFLAKVFNSSHSFLEDLTGLTLLHQETQAAEIWDMSDDETI [ATG7] | -0.14 | 0.0236 | 51.3 | 51.5 | -0.0691 | -0.177
MAAATGPSFWLGNETLKVPLALFALNRQRLCERLRKNPAVQAGSIVVLQGGEETQRYCTDTGVLFRQESFFHWAFGVTEPGCYGVIDVDTGKSTLFVPRLPASHATWMGKIHSKEHFKEKYAVDDVQYVDEIASVLTSQKPSVLLTLRGVNTDSGSVCREASFDGISKFEVNNTILHPEIVECRVFKTDMELEVLRYTNKISSEAHREVMKAVKVGMKEYELESLFEHYCYSRGGMRHSSYTCICGSGENSAVLHYGHAGAPNDRTIQNGDMCLFDMGGEYYCFASDITCSFPANGKFTADQKAVYEAVLRSSRAVMGAMKPGVWWPDMHRLADRIHLEELAHMGILSGSVDAMVQAHLGAVFMPHGLGHFLGIDVHDVGGYPEGVERIDEPGLRSLRTARHLQPGMVLTVEPGIYFIDHLLDEALADPARASFLNREVLQRFRGFGGVRIEEDVVVTDSGIELLTCVPRTVEEIEACMAGCDKAFTPFSGPK [PEPD] | -1.19 | -2.41 | 54.1 | 53.8 | -0.184 | -0.0689
MAAAVGRLLRASVARHVSAIPWGISATAALRPAACGRTSLTNLLCSGSSQAKLFSTSSSCHAPAVTQHAPYFKGTAVVNGEFKDLSLDDFKGKYLVLFFYPLDFTFVCPTEIVAFSDKANEFHDVNCEVVAVSVDSHFSHLAWINTPRKNGGLGHMNIALLSDLTKQISRDYGVLLEGSGLALRGLFIIDPNGVIKHLSVNDLPVGRSVEETLRLVKAFQYVETHGEVCPANWTPDSPTIKPSPAASKEYFQKVNQ [PRDX3] | 0.801 | -1.38 | 58.2 | 57.9 | -0.00401 | 0.452
MAAAVGVRGRYELPPCSGPGWLLSLSALLSVAARGAFATTHWVVTEDGKIQQQVDSPMNLKHPHDLVILMRQEATVNYLKELEKQLVAQKIHIEENEDRDTGLEQRHNKEDPDCIKAKVPLGDLDLYDGTYITLESKDISPEDYIDTESPVPPDPEQPDCTKILELPYSIHAFQHLRGVQERVNLSAPLLPKEDPIFTYLSKRLGRSIDDIGHLIHEGLQKNTSSWVLYNMASFYWRIKNEPYQVVECAMRALHFSSRHNKDIALVNLANVLHRAHFSADAAVVVHAALDDSDFFTSYYTLGNIYAMLGEYNHSVLCYDHALQARPGFEQAIKRKHAVLCQQKLEQKLEAQHRSLQRTLNELKEYQKQHDHYLRQQEILEKHKLIQEEQILRNIIHETQMAKEAQLGNHQICRLVNQQHSLHCQWDQPVRYHRGDIFENVDYVQFGEDSSTSSMMSVNFDVQSNQSDINDSVKSSPVAHSILWIWGRDSDAYRDKQHILWPKRADCTESYPRVPVGGELPTYFLPPENKGLRIHELSSDDYSTEEEAQTPDCSITDFRKSHTLSYLVKELEVRMDLKAKMPDDHARKILLSRINNYTIPEEEIGSFLFHAINKPNAPIWLILNEAGLYWRAVGNSTFAIACLQRALNLAPLQYQDVPLVNLANLLIHYGLHLDATKLLLQALAINSSEPLTFLSLGNAYLALKNISGALEAFRQALKLTTKCPECENSLKLIRCMQFYPFLYNITSSVCSGTVVEESNGSDEMENSDETKMSEEILALVDEFQQAWPLEGFGGALEMKGRRLDLQGIRVLKKGPQDGVARSSCYGDCRSEDDEATEWITFQVKRVKKPKGDHKKTPGKKVETGQIENGHRYQANLEITGPKVASPGPQGKKRDYQRLGWPSPDECLKLRWVELTAIVSTWLAVSSKNIDITEHIDFATPIQQPAMEPLCNGNLPTSMHTLDHLHGVSNRASLHYTGESQLTEVLQNLGKDQYPQQSLEQIGTRIAKVLEKNQTSWVLSSMAALYWRVKGQGKKAIDCLRQALHYAPHQMKDVPLISLANILHNAKLWNDAVIVATMAVEIAPHFAVNHFTLGNVYVAMEEFEKALVWYESTLKLQPEFVPAKNRIQTIQCHLMLKKGRRSP [TTC17] | 2.32 | 2.24 | 54.8 | 56.8 | 0.0442 | 0.107
MAAAVPQRAWTVEQLRSEQLPKKDIIKFLQEHGSDSFLAEHKLLGNIKNVAKTANKDHLVTAYNHLFETKRFKGTESISKVSEQVKNVKLNEDKPKETKSEETLDEGPPKYTKSVLKKGDKTNFPKKGDVVHCWYTGTLQDGTVFDTNIQTSAKKKKNAKPLSFKVGVGKVIRGWDEALLTMSKGEKARLEIEPEWAYGKKGQPDAKIPPNAKLTFEVELVDID [FKBP3] | 0.0401 | -2.71 | 54.2 | 54.4 | 0.226 | 0.57
MAAAVSSVVRRVEELGDLAQAHIQQLSEAAGEDDHFLIRASAALEKLKLLCGEEKECSNPSNLLELYTQAILDMTYFEENKLVDEDFPEDSSSQKVKELISFLSEPEILVKENNMHPKHCNLLGDELLECLSWRRGALLYMYCHSLTKRREWLLRKSSLLKKYLLDGISYLLQMLNYRCPIQLNEGVSFQDLDTAKLLSAGIFSDIHLLAMMYSGEMCYWGSKYCADQQPENHEVDTSVSGAGCTTYKEPLDFREVGEKILKKYVSVCEGPLKEQEWNTTNAKQILNFFHHRCN [C5ORF51] | 0.411 | 1.04 | 49.5 | 49.9 | -0.0335 | 0.302
